B1: Recombinant human FHR-2 (rFHR-2), C-terminal 6×His (natural protein, UniProt P36980 19-270, looked up)
chain: EAMFCDFPKINHGILYDEEKYKPFSQVPTGEVFYYSCEYNFVSPSKSFWTRITCAEEGWSPTPKCLRLCFFPFVENGHSESSGQTHLEGDTVQIICNTGYRLQNNENNISCVERGWSTPPKCRSTISAEKCGPPPPIDNGDITSFLLSVYAPGSSVEYQCQNLYQLEGNNQITCRNGQWSEPPKCLDPCVISQEIMEKYNIKLKWTNQQKLYSRTGDIVEFVCKSGYHPTKSHSFRAMCQNGKLVYPSCEEK
modifications: DyLight 488 or DyLight 594, 3 to 4 labels per monomer (the labelled copies of the FRET assays; unlabelled where added in excess and in the ELISA)
notes: Complement factor H-related protein 2 (FHR-2), human; Labelled and unlabelled copies of the same construct are kept as one molecule; also called rFHR-2^488; rFHR-2^594; not shown: 6×His, C-terminal, kept
B2: Recombinant human FHR-1 (rFHR-1), CFHR1*A allotype, C-terminal 6×His (natural protein, UniProt Q03591 19-330, looked up)
chain: EATFCDFPKINHGILYDEEKYKPFSQVPTGEVFYYSCEYNFVSPSKSFWTRITCTEEGWSPTPKCLRLCFFPFVENGHSESSGQTHLEGDTVQIICNTGYRLQNNENNISCVERGWSTPPKCRSTDTSCVNPPTVQNAHILSRQMSKYPSGERVRYECRSPYEMFGDEEVMCLNGNWTEPPQCKDSTGKCGPPPPIDNGDITSFPLSVYAPASSVEYQCQNLYQLEGNKRITCRNGQWSEPPKCLHPCVISREIMENYNIALRWTAKQKLYLRTGESAEFVCKRGYRLSSRSHTLRTTCWDGKLEYPTCAKR
notes: also called native rFHR-1; unlabeled rFHR-1; not shown: 6×His, C-terminal, kept
B3: Recombinant human FHR-5 (rFHR-5), C-terminal 6×His (natural protein, UniProt Q9BXR6 19-569, looked up)
chain: EGTLCDFPKIHHGFLYDEEDYNPFSQVPTGEVFYYSCEYNFVSPSKSFWTRITCTEEGWSPTPKCLRMCSFPFVKNGHSESSGLIHLEGDTVQIICNTGYSLQNNEKNISCVERGWSTPPICSFTKGECHVPILEANVDAQPKKESYKVGDVLKFSCRKNLIRVGSDSVQCYQFGWSPNFPTCKGQVRSCGPPPQLSNGEVKEIRKEEYGHNEVVEYDCNPNFIINGPKKIQCVDGEWTTLPTCVEQVKTCGYIPELEYGYVQPSVPPYQHGVSVEVNCRNEYAMIGNNMITCINGIWTELPMCVATHQLKRCKIAGVNIKTLLKLSGKEFNHNSRIRYRCSDIFRYRHSVCINGKWNPEVDCTEKREQFCPPPPQIPNAQNMTTTVNYQDGEKVAVLCKENYLLPEAKEIVCKDGRWQSLPRCVESTAYCGPPPSINNGDTTSFPLSVYPPGSTVTYRCQSFYKLQGSVTVTCRNKQWSEPPRCLDPCVVSEENMNKNNIQLKWRNDGKLYAKTGDAVEFQCKFPHKAMISSPPFRAICQEGKFEYPICE
modifications: DyLight 488 or DyLight 594, 3 to 4 labels per monomer (the labelled copies of the FRET assays; unlabelled where added in excess)
notes: Complement factor H-related protein 5 (FHR-5), human; Labelled and unlabelled copies of the same construct are kept as one molecule; also called rFHR-5^488; rFHR-5^594; not shown: 6×His, C-terminal, kept

Experiments:
[1] = molecular target: the molecule itself; assay: FRET or BRET; monomer exchange: equimolar DyLight 488- and 594-labelled protein mixed and followed in time; 37°C, 200 ng/mL in degassed PBS with 1 mg/mL IVIg; first-order exponential fit
[2] = molecular target: the molecule itself; assay: FRET or BRET; monomer exchange: pre-equilibrated 488- and 594-labelled protein, then a >5 times molar excess of unlabelled rFHR added; loss of FRET signal followed; 37°C, PBS with 1 mg/mL IVIg; first-order exponential fit
[3] = molecular target: B1; assay: as above; details: both partners purified

Row | observed rate constant k of monomer exchange [3] [s⁻¹] | Binder | dissociation half-life [1] [min] | observed rate constant k of monomer exchange [2] [s⁻¹]
1 | – | B1 | < 30 | 0.0004
2 | 0.00053 | B2 | – | –
3 | – | B3 | < 30 | 0.0012

Source: PMC5651247, “Factor H-Related (FHR)-1 and FHR-2 Form Homo- and Heterodimers, while FHR-5 Circulates Only As Homodimer in Human Plasma” (Frontiers in Immunology, 2017)
